# Results reported in paper PMC3883301, “FLC-mediated flowering repression is positively regulated by sumoylation” (Journal of Experimental Botany, 2013).
# T1: GST–FLC, full length (Arabidopsis thaliana, UniProt Q9S7Q7 1-196)
# T1 construct: Flowering locus C (FLC), Arabidopsis, full-length GST–FLC bait; The construct section describes only GST–FLC-Myc (pGEX4T-1)
# T1 sequence (looked up): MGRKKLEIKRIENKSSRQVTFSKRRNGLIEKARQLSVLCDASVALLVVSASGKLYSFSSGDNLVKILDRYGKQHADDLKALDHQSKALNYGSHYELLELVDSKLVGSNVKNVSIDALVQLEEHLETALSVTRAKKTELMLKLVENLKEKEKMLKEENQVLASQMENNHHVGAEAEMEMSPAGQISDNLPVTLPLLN
# B1: His6-FLC (flowering locus C, full length) (natural protein, Arabidopsis thaliana, UniProt Q9S7Q7 1-196, looked up)
# chain: MGRKKLEIKRIENKSSRQVTFSKRRNGLIEKARQLSVLCDASVALLVVSASGKLYSFSSGDNLVKILDRYGKQHADDLKALDHQSKALNYGSHYELLELVDSKLVGSNVKNVSIDALVQLEEHLETALSVTRAKKTELMLKLVENLKEKEKMLKEENQVLASQMENNHHVGAEAEMEMSPAGQISDNLPVTLPLLN
# notes: Flowering locus C (FLC), MADS-box transcription factor, Arabidopsis; full-length cDNA in pET28a; The printed name puts His6 before FLC; also called Arabidopsis FLC; source: E. coli BL21/DE3 (pLysS), purified (Ni2+-NTA resin)
# Columns and labels:
# [1] = target: T1, GST–FLC, full length; experiment: pull-down; 2 μg GST–FLC bait and 2 μg His6-FLC or His6-mFLC prey in 1 ml binding buffer (50 mM TRIS-HCl pH 7.5, 100 mM NaCl, 1% Triton X-100, 0.2% glycerol, 0.5 mM β-mercaptoethanol); 25 °C 2 h; glutathione resin; anti-His blot; conditions: both partners purified
# [2] = target: B1; experiment: pull-down; 2 μg GST–AtSIZ1 (full length or deletion mutant) or GST bait and 2 μg His6-FLC prey in 1 ml 50 mM TRIS-HCl pH 7.5, 100 mM NaCl, 1% Triton X-100, 0.2% glycerol, 0.5 mM β-mercaptoethanol; 25 °C 2 h; glutathione resin; anti-His blot; conditions: both partners purified
binding result [1],binding result [2],Binder
binds,,B1
,binds,"GST–AtSIZ1 (D3), amino acids 1–100 (domain or fragment, Arabidopsis thaliana, UniProt Q680Q4 1-100, looked up, AtSIZ1, Arabidopsis, amino acids 1-100 (N-terminal region containing the SAP domain), in pGEX4T-1; also called N-terminal region containing the SAP domain of AtSIZ1; source: E. coli BL21/DE3 (pLysS), purified (glutathione resin)) MDLEANCKEKLSYFRIKELKDVLTQLGLSKQGKKQELVDRILTLLSDEQAARLLSKKNTVAKEAVAKLVDDTYRKMQVSGASDLASKGQVSSDTSNLKVK"
binds,,"His6-mFLC (FLC K154R) (natural protein, Arabidopsis thaliana, UniProt Q9S7Q7 1-196, looked up, Flowering locus C (FLC), Arabidopsis, full length with the sumoylation site mutation K154R; The construct section describes His6-FLC(K154R)-Myc only; also called mutant FLC; source: E. coli BL21, purified (Ni2+-NTA resin)) MGRKKLEIKRIENKSSRQVTFSKRRNGLIEKARQLSVLCDASVALLVVSASGKLYSFSSGDNLVKILDRYGKQHADDLKALDHQSKALNYGSHYELLELVDSKLVGSNVKNVSIDALVQLEEHLETALSVTRAKKTELMLKLVENLKEKEKMLREENQVLASQMENNHHVGAEAEMEMSPAGQISDNLPVTLPLLN"
